Reference: FireProtDB (doi:10.1021/bi00236a021)
“And” between values parts separate entries of the source, which are not always exact repeats. Identical values can stand only once.

Settings: Escherichia coli (strain K12), whole UniProt chain shown
[1] = pH 7, Thermal, CD, Potassium phosphate 10 mM
[2] = pH 8, 30 °C, GdnHCl, Fluorescence, Tris-HCl 50 mM

B1: Glutaredoxin 1 wild type, P68688 (protein)
chain: MQTVIFGRSGCPYCVRAKDLAEKLSNERDDFQYQYVDIRAEGITKEDLQQKAGKPVETVPQIFVDQQHIGGYTDFAAWVKENLDA
pH 7, 25 °C, Thermal, CD, Potassium phosphate 10 mM
  unfolding free energy: 4.7 kcal/mol
pH 7, 30 °C, Thermal, CD, Potassium phosphate 10 mM
  unfolding free energy: 4.1 kcal/mol and 5 kcal/mol
[1]
  Tm: 55 °C and 57 °C
  unfolding enthalpy (van 't Hoff): 67 kcal/mol and 75 kcal/mol
[2]
  denaturant midpoint (higher = more stable): 2 M
  unfolding free energy: 4.2 kcal/mol and 6.1 kcal/mol
